Test results: PMC7486785 (Proceedings of the National Academy of Sciences of the …, 2020)

Experiments:
[1] = target: Duck egg lysozyme (DEL); test: bio-layer interferometry; conditions: parent: est. 2.5e7 M-1; read off a plot
[2] = target: VH substitutions L4F, S31N, Y33H, and S56N; test: BLI; BLItz; biotinylated Fab loaded on streptavidin biosensors, lysozyme proteins in solution at a range of molar concentrations; PBS (sensors rehydrated in PBS with 0.1% BSA); global fit, 1:1 Fab-lysozyme interaction; affinities printed as 1/KD
[3] = target: T1, Duck egg lysozyme (DEL), D65N + N103D double mutant of the DEL-II isoform (Anas platyrhynchos, DEL-II double mutant, strain); test: BLI; BLItz (ForteBio); biotinylated Hy10 Fab variant immobilised on streptavidin biosensors (rehydrated in PBS with 0.1% wt/vol BSA); soluble monomeric lysozyme antigen as analyte at a range of concentrations; global fit, 1:1 Fab-lysozyme interaction; conditions: both partners purified
T1 construct: duck egg lysozyme, DEL-II isoform, D65N + N103D double mutant; differs from HEL3X at 25 amino acids; source: Pichia pastoris, secreted, purified from culture supernatant (ion exchange)
T1 chain: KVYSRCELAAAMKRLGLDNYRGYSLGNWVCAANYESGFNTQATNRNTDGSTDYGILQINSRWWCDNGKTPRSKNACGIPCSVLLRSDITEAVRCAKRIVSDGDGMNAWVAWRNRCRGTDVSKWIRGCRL

HEL^3X self-lysozyme, sequence (P00698 other isoform, or with tags, fused parts or gaps): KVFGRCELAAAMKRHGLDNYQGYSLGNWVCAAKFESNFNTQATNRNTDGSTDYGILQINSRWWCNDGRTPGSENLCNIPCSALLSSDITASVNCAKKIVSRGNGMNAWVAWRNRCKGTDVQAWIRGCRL

Molecule	Ka [1] [M⁻¹]	fold decrease in affinity against Hy10 [2] [fold]	Ka [3] [M⁻¹]	Kd [3] [nM]
Hy10 Fab S52N	< 100000	–	–	–
HEL^3X self-lysozyme (from UniProt P00698 19-147) (natural protein)	–	3 to 39	–	–
HyHEL10 (Hy10) Fab, WT founder (Fab, V domains shown, heavy chain of Hy10 Fab; light chain of Hy10 Fab; also called Hy10WT; source: Expi293, transient (pCEP4), purified (Talon resin, gel filtration)) VH: DVQLQESGPSLVKPSQTLSLTCSVTGDSITSDYWSWIRKFPGNRLEYMGYVSYSGSTYYNPSLKSRISITRDTSKNQYYLDLNSVTTEDTATYYCANWDGDYWGQGTLVTVSA VL: DIVLTQSPATLSVTPGNSVSLSCRASQSIGNNLHWYQQKSHESPRLLIKYASQSISGIPSRFSGSGSGTDFTLSINSVETEDFGMYFCQQSNSWPYTFGGGTKLEIK	–	–	2.49e+07	40.1
Hy10 Fab L4F (Fab, V domains shown, as the heavy chain of Dm5 with the stated changes; as the light chain of Dm5; source: Expi293, transient (pCEP4), purified (Talon resin, gel filtration)) VH: DVQFQESGPSLVKPSQTLSLTCSVTGDSITSDYWSWIRKFPGNRLEYMGYVSYSGSTYYNPSLKSRISITRDTSKNQYYLDLNSVTTEDTATYYCANWDGDYWGQGTLVTVSA VL: DIVLTQSPATLSVTPGNSVSLSCRASQSIGNNLHWYQQKSHESPRLLIKYASQSISGIPSRFSGSGSGTDFTLSINSVETEDFGMYFCQQSNSWPYTFGGGTKLEIK	–	–	3.25e+06	308
Hy10 Fab L4F/Y33H (Fab, V domains shown, as the heavy chain of Dm5 with the stated changes; as the light chain of Dm5; source: Expi293, transient (pCEP4), purified (Talon resin, gel filtration)) VH: DVQFQESGPSLVKPSQTLSLTCSVTGDSITSDHWSWIRKFPGNRLEYMGYVSYSGSTYYNPSLKSRISITRDTSKNQYYLDLNSVTTEDTATYYCANWDGDYWGQGTLVTVSA VL: DIVLTQSPATLSVTPGNSVSLSCRASQSIGNNLHWYQQKSHESPRLLIKYASQSISGIPSRFSGSGSGTDFTLSINSVETEDFGMYFCQQSNSWPYTFGGGTKLEIK	–	–	5.8e+06	172
Hy10 Fab I29F (Fab, V domains shown, as the heavy chain of Dm5 with the stated changes; as the light chain of Dm5; source: Expi293, transient (pCEP4), purified (Talon resin, gel filtration)) VH: DVQLQESGPSLVKPSQTLSLTCSVTGDSFTSDYWSWIRKFPGNRLEYMGYVSYSGSTYYNPSLKSRISITRDTSKNQYYLDLNSVTTEDTATYYCANWDGDYWGQGTLVTVSA VL: DIVLTQSPATLSVTPGNSVSLSCRASQSIGNNLHWYQQKSHESPRLLIKYASQSISGIPSRFSGSGSGTDFTLSINSVETEDFGMYFCQQSNSWPYTFGGGTKLEIK	–	–	6.37e+07	15.7
Hy10 Fab I29F/S52T (Fab, V domains shown, as the heavy chain of Dm5 with the stated changes; as the light chain of Dm5; source: Expi293, transient (pCEP4), purified (Talon resin, gel filtration)) VH: DVQLQESGPSLVKPSQTLSLTCSVTGDSFTSDYWSWIRKFPGNRLEYMGYVTYSGSTYYNPSLKSRISITRDTSKNQYYLDLNSVTTEDTATYYCANWDGDYWGQGTLVTVSA VL: DIVLTQSPATLSVTPGNSVSLSCRASQSIGNNLHWYQQKSHESPRLLIKYASQSISGIPSRFSGSGSGTDFTLSINSVETEDFGMYFCQQSNSWPYTFGGGTKLEIK	–	–	1.73e+08	5.79
Hy10 Fab I29F/S52T/Y53F (Fab, V domains shown, as the heavy chain of Dm5 with the stated changes; as the light chain of Dm5; source: Expi293, transient (pCEP4), purified (Talon resin, gel filtration)) VH: DVQLQESGPSLVKPSQTLSLTCSVTGDSFTSDYWSWIRKFPGNRLEYMGYVTFSGSTYYNPSLKSRISITRDTSKNQYYLDLNSVTTEDTATYYCANWDGDYWGQGTLVTVSA VL: DIVLTQSPATLSVTPGNSVSLSCRASQSIGNNLHWYQQKSHESPRLLIKYASQSISGIPSRFSGSGSGTDFTLSINSVETEDFGMYFCQQSNSWPYTFGGGTKLEIK	–	–	6.1e+09	0.164
Hy10 Fab I29F/S52T/Y53F/Y58F (Fab, V domains shown, as the heavy chain of Dm5 with the stated changes; as the light chain of Dm5; source: Expi293, transient (pCEP4), purified (Talon resin, gel filtration)) VH: DVQLQESGPSLVKPSQTLSLTCSVTGDSFTSDYWSWIRKFPGNRLEYMGYVTFSGSTFYNPSLKSRISITRDTSKNQYYLDLNSVTTEDTATYYCANWDGDYWGQGTLVTVSA VL: DIVLTQSPATLSVTPGNSVSLSCRASQSIGNNLHWYQQKSHESPRLLIKYASQSISGIPSRFSGSGSGTDFTLSINSVETEDFGMYFCQQSNSWPYTFGGGTKLEIK	–	–	7.51e+09	0.133
Hy10 Fab I29F/S52T/Y58F (Fab, V domains shown, as the heavy chain of Dm5 with the stated changes; as the light chain of Dm5; source: Expi293, transient (pCEP4), purified (Talon resin, gel filtration)) VH: DVQLQESGPSLVKPSQTLSLTCSVTGDSFTSDYWSWIRKFPGNRLEYMGYVTYSGSTFYNPSLKSRISITRDTSKNQYYLDLNSVTTEDTATYYCANWDGDYWGQGTLVTVSA VL: DIVLTQSPATLSVTPGNSVSLSCRASQSIGNNLHWYQQKSHESPRLLIKYASQSISGIPSRFSGSGSGTDFTLSINSVETEDFGMYFCQQSNSWPYTFGGGTKLEIK	–	–	5.92e+08	1.69
Hy10 Fab S31N (Fab, V domains shown, as the heavy chain of Dm5 with the stated changes; as the light chain of Dm5; source: Expi293, transient (pCEP4), purified (Talon resin, gel filtration)) VH: DVQLQESGPSLVKPSQTLSLTCSVTGDSITNDYWSWIRKFPGNRLEYMGYVSYSGSTYYNPSLKSRISITRDTSKNQYYLDLNSVTTEDTATYYCANWDGDYWGQGTLVTVSA VL: DIVLTQSPATLSVTPGNSVSLSCRASQSIGNNLHWYQQKSHESPRLLIKYASQSISGIPSRFSGSGSGTDFTLSINSVETEDFGMYFCQQSNSWPYTFGGGTKLEIK	–	–	9.6e+06	104
Hy10 Fab Y33H (Fab, V domains shown, as the heavy chain of Dm5 with the stated changes; as the light chain of Dm5; also called Hy10-Y33H; source: Expi293, transient (pCEP4), purified (Talon resin, gel filtration)) VH: DVQLQESGPSLVKPSQTLSLTCSVTGDSITSDHWSWIRKFPGNRLEYMGYVSYSGSTYYNPSLKSRISITRDTSKNQYYLDLNSVTTEDTATYYCANWDGDYWGQGTLVTVSA VL: DIVLTQSPATLSVTPGNSVSLSCRASQSIGNNLHWYQQKSHESPRLLIKYASQSISGIPSRFSGSGSGTDFTLSINSVETEDFGMYFCQQSNSWPYTFGGGTKLEIK	–	–	1.68e+06	594
Hy10 Fab S52T (Fab, V domains shown, as the heavy chain of Dm5 with the stated changes; as the light chain of Dm5; source: Expi293, transient (pCEP4), purified (Talon resin, gel filtration)) VH: DVQLQESGPSLVKPSQTLSLTCSVTGDSITSDYWSWIRKFPGNRLEYMGYVTYSGSTYYNPSLKSRISITRDTSKNQYYLDLNSVTTEDTATYYCANWDGDYWGQGTLVTVSA VL: DIVLTQSPATLSVTPGNSVSLSCRASQSIGNNLHWYQQKSHESPRLLIKYASQSISGIPSRFSGSGSGTDFTLSINSVETEDFGMYFCQQSNSWPYTFGGGTKLEIK	–	–	2.98e+07	33.5
Hy10 Fab S52T/Y58F (Fab, V domains shown, as the heavy chain of Dm5 with the stated changes; as the light chain of Dm5; source: Expi293, transient (pCEP4), purified (Talon resin, gel filtration)) VH: DVQLQESGPSLVKPSQTLSLTCSVTGDSITSDYWSWIRKFPGNRLEYMGYVTYSGSTFYNPSLKSRISITRDTSKNQYYLDLNSVTTEDTATYYCANWDGDYWGQGTLVTVSA VL: DIVLTQSPATLSVTPGNSVSLSCRASQSIGNNLHWYQQKSHESPRLLIKYASQSISGIPSRFSGSGSGTDFTLSINSVETEDFGMYFCQQSNSWPYTFGGGTKLEIK	–	–	3.8e+08	2.62
Hy10 Fab S52T/Y53F (Fab, V domains shown, as the heavy chain of Dm5 with the stated changes; as the light chain of Dm5; source: Expi293, transient (pCEP4), purified (Talon resin, gel filtration)) VH: DVQLQESGPSLVKPSQTLSLTCSVTGDSITSDYWSWIRKFPGNRLEYMGYVTFSGSTYYNPSLKSRISITRDTSKNQYYLDLNSVTTEDTATYYCANWDGDYWGQGTLVTVSA VL: DIVLTQSPATLSVTPGNSVSLSCRASQSIGNNLHWYQQKSHESPRLLIKYASQSISGIPSRFSGSGSGTDFTLSINSVETEDFGMYFCQQSNSWPYTFGGGTKLEIK	–	–	2.81e+08	3.56
Hy10 Fab S52T/Y53F/Y58F (Fab, V domains shown, as the heavy chain of Dm5 with the stated changes; as the light chain of Dm5; source: Expi293, transient (pCEP4), purified (Talon resin, gel filtration)) VH: DVQLQESGPSLVKPSQTLSLTCSVTGDSITSDYWSWIRKFPGNRLEYMGYVTFSGSTFYNPSLKSRISITRDTSKNQYYLDLNSVTTEDTATYYCANWDGDYWGQGTLVTVSA VL: DIVLTQSPATLSVTPGNSVSLSCRASQSIGNNLHWYQQKSHESPRLLIKYASQSISGIPSRFSGSGSGTDFTLSINSVETEDFGMYFCQQSNSWPYTFGGGTKLEIK	–	–	1.99e+09	0.502
Hy10 Fab Y53F (Fab, V domains shown, as the heavy chain of Dm5 with the stated changes; as the light chain of Dm5; source: Expi293, transient (pCEP4), purified (Talon resin, gel filtration)) VH: DVQLQESGPSLVKPSQTLSLTCSVTGDSITSDYWSWIRKFPGNRLEYMGYVSFSGSTYYNPSLKSRISITRDTSKNQYYLDLNSVTTEDTATYYCANWDGDYWGQGTLVTVSA VL: DIVLTQSPATLSVTPGNSVSLSCRASQSIGNNLHWYQQKSHESPRLLIKYASQSISGIPSRFSGSGSGTDFTLSINSVETEDFGMYFCQQSNSWPYTFGGGTKLEIK	–	–	1.2e+08	8.35
Hy10 Fab Y53F/S56R (Fab, V domains shown, as the heavy chain of Dm5 with the stated changes; as the light chain of Dm5; source: Expi293, transient (pCEP4), purified (Talon resin, gel filtration)) VH: DVQLQESGPSLVKPSQTLSLTCSVTGDSITSDYWSWIRKFPGNRLEYMGYVSFSGRTYYNPSLKSRISITRDTSKNQYYLDLNSVTTEDTATYYCANWDGDYWGQGTLVTVSA VL: DIVLTQSPATLSVTPGNSVSLSCRASQSIGNNLHWYQQKSHESPRLLIKYASQSISGIPSRFSGSGSGTDFTLSINSVETEDFGMYFCQQSNSWPYTFGGGTKLEIK	–	–	3.73e+07	26.8
Hy10 Fab Y53F/Y58F (Fab, V domains shown, as the heavy chain of Dm5 with the stated changes; as the light chain of Dm5; source: Expi293, transient (pCEP4), purified (Talon resin, gel filtration)) VH: DVQLQESGPSLVKPSQTLSLTCSVTGDSITSDYWSWIRKFPGNRLEYMGYVSFSGSTFYNPSLKSRISITRDTSKNQYYLDLNSVTTEDTATYYCANWDGDYWGQGTLVTVSA VL: DIVLTQSPATLSVTPGNSVSLSCRASQSIGNNLHWYQQKSHESPRLLIKYASQSISGIPSRFSGSGSGTDFTLSINSVETEDFGMYFCQQSNSWPYTFGGGTKLEIK	–	–	1.13e+08	8.85
Hy10 Fab S56R (Fab, V domains shown, as the heavy chain of Dm5 with the stated changes; as the light chain of Dm5; also called Hy10-S56R; source: Expi293, transient (pCEP4), purified (Talon resin, gel filtration)) VH: DVQLQESGPSLVKPSQTLSLTCSVTGDSITSDYWSWIRKFPGNRLEYMGYVSYSGRTYYNPSLKSRISITRDTSKNQYYLDLNSVTTEDTATYYCANWDGDYWGQGTLVTVSA VL: DIVLTQSPATLSVTPGNSVSLSCRASQSIGNNLHWYQQKSHESPRLLIKYASQSISGIPSRFSGSGSGTDFTLSINSVETEDFGMYFCQQSNSWPYTFGGGTKLEIK	–	–	4.41e+06	227
Hy10 Fab Y58F (Fab, V domains shown, as the heavy chain of Dm5 with the stated changes; as the light chain of Dm5; source: Expi293, transient (pCEP4), purified (Talon resin, gel filtration)) VH: DVQLQESGPSLVKPSQTLSLTCSVTGDSITSDYWSWIRKFPGNRLEYMGYVSYSGSTFYNPSLKSRISITRDTSKNQYYLDLNSVTTEDTATYYCANWDGDYWGQGTLVTVSA VL: DIVLTQSPATLSVTPGNSVSLSCRASQSIGNNLHWYQQKSHESPRLLIKYASQSISGIPSRFSGSGSGTDFTLSINSVETEDFGMYFCQQSNSWPYTFGGGTKLEIK	–	–	9.35e+07	10.7
